The chains are these.
T1: BMPRII ECD-Fc (human, UniProt Q13873 27-150, limits assumed)
T1 construct: extracellular domain; Bought from R&D Systems as C-terminal Fc-tagged chimera; not shown: C-terminal human IgG1 Fc tag
T1 sequence (looked up): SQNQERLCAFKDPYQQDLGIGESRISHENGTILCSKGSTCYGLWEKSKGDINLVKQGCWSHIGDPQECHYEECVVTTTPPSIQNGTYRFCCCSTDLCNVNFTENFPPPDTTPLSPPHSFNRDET

T2: ActRIIb ECD-Fc (human, UniProt Q13705 19-137, limits assumed)
T2 construct: extracellular domain; Bought from R&D Systems as C-terminal Fc-tagged chimera; not shown: C-terminal human IgG1 Fc tag
T2 sequence (looked up): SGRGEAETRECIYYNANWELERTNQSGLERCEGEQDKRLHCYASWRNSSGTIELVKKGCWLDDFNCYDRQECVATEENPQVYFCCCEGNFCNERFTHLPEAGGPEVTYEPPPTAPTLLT

T3: BMPRIb (ALK6) ECD-Fc (human, UniProt O00238 14-126)
T3 construct: extracellular domain; Bought from R&D Systems as C-terminal Fc-tagged chimera; not shown: C-terminal human IgG1 Fc tag
T3 sequence (looked up): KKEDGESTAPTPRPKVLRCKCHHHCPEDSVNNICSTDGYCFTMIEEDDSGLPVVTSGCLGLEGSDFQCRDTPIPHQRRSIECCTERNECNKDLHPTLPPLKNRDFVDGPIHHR

B1: ALK7 ECD-Fc (Fc fusion, UniProt Q8NER5 22-113, looked up)
chain: LSPGLKCVCLLCDSSNFTCQTEGACWASVMLTNGKEQVIKSCVSLPELNAQVFCHSSNNVTKTECCFTDFCNNITLHLPTASPNAPKLGPME
notes: extracellular domain; Bought from R&D Systems as C-terminal Fc-tagged chimera; not shown: C-terminal human IgG1 Fc tag
B2: ActRIa (ALK2) ECD-Fc (Fc fusion, UniProt Q04771 21-123, looked up)
chain: MEDEKPKVNPKLYMCVCEGLSCGNEDHCEGQQCFSSLSINDGFHVYQKGCFQVYEQGKMTCKTPPSPGQAVECCQGDWCNRNITAQLPTKGKSFPGTQNFHLE
notes: as for B1
B3: ActRIb (ALK4) ECD-Fc (Fc fusion, UniProt P36896 24-126, looked up)
chain: SGPRGVQALLCACTSCLQANYTCETDGACMVSIFNLDGMEHHVRTCIPKVELVPAGKPFYCLSSEDLRNTHCCYTDYCNRIDLRVPSGHLKEPEHPSMWGPVE
notes: as for B1
B4: TGF-betaRI (ALK5) ECD-Fc (Fc fusion, UniProt P36897 34-126, looked up)
chain: LQCFCHLCTKDNFTCVTDGLCFVSVTETTDKVIHNSMCIAEIDLIPRDRPFVCAPSSKTGSVTTTYCCNQDHCNKIELPTTVKSSPGLGPVEL
notes: extracellular domain; Bought from R&D Systems as C-terminal Fc-tagged chimera; also called TGFβRI; not shown: C-terminal human IgG1 Fc tag
B5: MB109 protein (bioactive recombinant human BMP-9 expressed in E. coli and refolded; functional dimer) (ligand)
chain: MSAGAGSHCQKTSLRVNFEDIGWDSWIIAPKEYEAYECKGGCFFPLADDVTPTKHAIVQTLVHLKFPTKVGKACCVPTKLSPISVLYKDDMGVPTLKYHYEGMSVAECGCR
notes: also called purified MB109

The target of test [1] is B5. The test can be described thus: SPR (BIAcore 3000), ECD-Fc on CM5 chip, MB109 as analyte. The procedure:
(§1) The receptor ECDs were purchased from R&D Systems (Minneapolis, USA) as C-terminal Fc-tagged chimera. The binding affinities were measured using a BIAcore 3000 (GE Healthcare, USA) following a protocol described previously by Allendorph et al. with minor modification (see, e.g., Allendorph et al., Plos One 6(11):e26402 (2011), and Allendorph et al., Proceedings of the National Academy of Sciences of the United States of America 103(20):7643-7648, 2006). In brief, the ECD-Fc proteins were prepared in a pH 4.0 solution and captured on flow cell 2, 3 and 4 of the CM5 sensor chip at a flow rate of 10 μL/min until the density researched ˜1,000 response units. Flow cell 1 was left blank for background subtraction. For kinetic analysis, purified MB109 was prepared in a series of 2-fold dilution in an assay solution (10 mM HEPES, pH 7.4, 150 mM NaCl, 3.4 mM EDTA and 0.005% Tween-20) and injected over the flow cells at a flow rate of […]. All tests were performed using a set of 2-fold diluted protein concentrations from 20 to 0.3 nM plus the assay solution as a blank. The data fitting was performed using a minimum of 4 concentrations and a global 1:1 Langmuir binding with mass transfer model.
(§2) To determine receptor binding specificity of MB109, purified MB109 was subjected to surface plasmon resonance analysis to determine its binding affinities to immobilized extracellular domains (ECDs) of Type I and Type II receptors, including ALK1, ActRIa (ALK2), ActRIb (ALK4), BMPRIa (ALK3), BMPRIb (ALK6), TGFβRI (ALK5), ALK7, ActRIIa, ActRIIb, BMPRII, TGF-βRII and MISRII. Among these receptor ECDs, MB109 had strong binding affinity only to ALK1, ActRIIb and BMPRII, while the binding to the other receptor ECDs were either very transient (to ActRIIa) or non-detectable (see TABLE 2).

Another test addresses T1, BMPRII ECD-Fc. The test can be described thus: SPR (BIAcore 3000), ECD-Fc on CM5 chip, MB109 as analyte, global 1:1 Langmuir with mass transfer. The procedure:
as §1, §2

Another test addresses T4, ActRIIa ECD-Fc (human, UniProt P27037 20-135, limits assumed).
T4 construct: extracellular domain; Bought from R&D Systems as C-terminal Fc-tagged chimera; not shown: C-terminal human IgG1 Fc tag
The description is as above. The procedure:
as §1, §2

Another test has as its target T2, ActRIIb ECD-Fc. The test is described as above. On the procedure: as §1, §2
A further test concerns the target T5, BMPRIa (ALK3) ECD-Fc (human, UniProt P36894 24-152, limits assumed).
T5 construct: extracellular domain; Bought from R&D Systems as C-terminal Fc-tagged chimera; not shown: C-terminal human IgG1 Fc tag
The test can be described thus: SPR (BIAcore 3000), ECD-Fc on CM5 chip, MB109 as analyte. The procedure: as §1, §2

For the next test, the target named is T6, MISRII ECD-Fc (human, UniProt Q16671 18-149, limits assumed).
T6 construct: extracellular domain; Bought from R&D Systems as C-terminal Fc-tagged chimera; not shown: C-terminal human IgG1 Fc tag
The test is described as above. On the procedure:
as §1, §2

A further test addresses T3, BMPRIb (ALK6) ECD-Fc. The test is described as above. On the procedure: as §1, §2
In the next test the target is T7, TGF-βRII ECD-Fc (human, UniProt P37173 23-166).
T7 construct: extracellular domain; Bought from R&D Systems as C-terminal Fc-tagged chimera; not shown: C-terminal human IgG1 Fc tag
Described as above. The procedure:
as §1, §2

T4 sequence (P27037 20-135 limits assumed): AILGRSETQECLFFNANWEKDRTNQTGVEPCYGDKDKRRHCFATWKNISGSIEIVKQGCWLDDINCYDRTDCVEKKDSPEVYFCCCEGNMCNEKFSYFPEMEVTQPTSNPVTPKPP
T5 sequence (P36894 24-152 limits assumed): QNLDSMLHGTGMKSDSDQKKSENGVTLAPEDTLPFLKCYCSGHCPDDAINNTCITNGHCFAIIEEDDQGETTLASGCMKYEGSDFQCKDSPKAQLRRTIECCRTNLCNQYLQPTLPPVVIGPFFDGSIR
T7 sequence (P37173 23-166): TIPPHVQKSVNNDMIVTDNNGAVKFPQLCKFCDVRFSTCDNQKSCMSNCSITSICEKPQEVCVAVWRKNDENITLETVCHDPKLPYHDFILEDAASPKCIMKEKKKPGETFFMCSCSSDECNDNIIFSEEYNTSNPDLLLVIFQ
T6 sequence (Q16671 18-149 limits assumed): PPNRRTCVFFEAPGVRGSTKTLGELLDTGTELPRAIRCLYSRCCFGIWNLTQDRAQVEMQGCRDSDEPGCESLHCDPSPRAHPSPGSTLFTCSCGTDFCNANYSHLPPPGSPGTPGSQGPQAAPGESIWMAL

With B1, the binding result in test [1] was “no binding (tested: 20 to 0.3 nM)”.

With B2, the binding result in test [1] is on record as “no binding (tested: 20 to 0.3 nM)”.

Regarding B3, the binding result in test [1] is on record as “no binding (tested: 20 to 0.3 nM)”.

In the case of B4, in test [1], the binding result is on record as “no binding (tested: 20 to 0.3 nM)”.

Consider B5, for which the equilibrium dissociation constant (Kd) with BMPRII ECD-Fc came to 0.33 nM; in the test with ActRIIa ECD-Fc, 4.27 nM; in the test with ActRIIb ECD-Fc, 0.154 nM. In addition, the koff in the test with BMPRII ECD-Fc came out at 0.00153 s⁻¹; in the test with ActRIIa ECD-Fc it was 0.0121 s⁻¹; in the test with ActRIIb ECD-Fc, 0.00152 s⁻¹. In addition, the kon amounted to 4.63e+06 M⁻¹ s⁻¹ with BMPRII ECD-Fc, 2.85e+06 M⁻¹ s⁻¹ in the test with ActRIIa ECD-Fc and 9.91e+06 M⁻¹ s⁻¹ with ActRIIb ECD-Fc. Further, the binding result in the test with BMPRIa (ALK3) ECD-Fc, with MISRII ECD-Fc, with BMPRIb (ALK6) ECD-Fc and in the test with TGF-βRII ECD-Fc was “no binding (tested: 20 to 0.3 nM)” in each case.

Source of the values: US20160257728A1 (JOINT CENTER FOR BIOSCIENCES, published 2016).
